{
  "source": "patent WO2019109974A1",
  "biological_target": "hPD-L1(ECD)-mFc (human)",
  "sequence (chain, as listed by the source limits assumed)": "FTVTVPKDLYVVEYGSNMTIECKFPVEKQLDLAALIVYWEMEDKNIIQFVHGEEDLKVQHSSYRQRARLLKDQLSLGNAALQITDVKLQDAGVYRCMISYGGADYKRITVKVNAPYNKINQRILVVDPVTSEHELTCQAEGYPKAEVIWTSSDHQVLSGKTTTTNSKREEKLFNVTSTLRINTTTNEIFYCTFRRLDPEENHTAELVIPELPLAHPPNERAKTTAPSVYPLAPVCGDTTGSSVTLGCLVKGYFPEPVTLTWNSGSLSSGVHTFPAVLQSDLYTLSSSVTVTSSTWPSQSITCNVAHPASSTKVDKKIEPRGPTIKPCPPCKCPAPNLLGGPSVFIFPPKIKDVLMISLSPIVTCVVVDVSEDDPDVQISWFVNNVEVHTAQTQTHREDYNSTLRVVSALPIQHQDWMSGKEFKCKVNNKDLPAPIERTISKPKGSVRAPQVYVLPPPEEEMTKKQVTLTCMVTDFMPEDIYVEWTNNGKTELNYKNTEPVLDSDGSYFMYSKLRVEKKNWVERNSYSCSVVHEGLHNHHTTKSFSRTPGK",
  "experiment": "ELISA, hPD-L1-mFc coated",
  "data": [
    {"substance": "Tecentriq (antibody)", "values": [
      {"measurement": "EC50", "value": 0.142, "unit": "µg/mL"}
    ]}
  ]
}
